Laboratory results published in patent publication US20220298218A1 (ANTAG THERAPEUTICS, published 2022).
Where no end group is shown, it is not given here. [ ]: non-standard residue; d: D form. The star is where a group is joined. C16 diacid = O=C(O)CCCCCCCCCCCCCCC(=O)*; Aib = CC(C)(N)C(=O)O

T1: human GIP receptor (human, UniProt P48546 22-466)
T1 sequence (looked up): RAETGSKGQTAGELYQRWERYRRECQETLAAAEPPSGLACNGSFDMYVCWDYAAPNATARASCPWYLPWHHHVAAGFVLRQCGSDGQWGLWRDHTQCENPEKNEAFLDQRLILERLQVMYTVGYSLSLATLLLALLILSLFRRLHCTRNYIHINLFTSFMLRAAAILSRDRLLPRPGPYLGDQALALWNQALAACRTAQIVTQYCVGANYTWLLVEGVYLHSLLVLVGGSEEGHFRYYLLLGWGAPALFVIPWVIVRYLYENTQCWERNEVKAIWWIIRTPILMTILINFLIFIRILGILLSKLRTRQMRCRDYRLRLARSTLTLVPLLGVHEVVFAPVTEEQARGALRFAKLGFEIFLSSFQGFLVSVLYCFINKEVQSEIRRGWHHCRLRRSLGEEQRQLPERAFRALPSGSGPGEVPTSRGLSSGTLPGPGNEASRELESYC

B1: AT639 (peptide)
peptide: VETFISDYSIAMDKIK(C16 diacid)QQDFVNWLLAQKPSSGAPPPS-OH
modifications: N-terminus assumed
SMILES: CC[C@H](C)[C@H](NC(=O)[C@H](CO)NC(=O)[C@H](Cc1ccc(O)cc1)NC(=O)[C@H](CC(=O)O)NC(=O)[C@H](CO)NC(=O)[C@@H](NC(=O)[C@H](Cc1ccccc1)NC(=O)[C@@H](NC(=O)[C@H](CCC(=O)O)NC(=O)[C@@H](N)C(C)C)[C@@H](C)O)[C@@H](C)CC)C(=O)N[C@@H](C)C(=O)N[C@@H](CCSC)C(=O)N[C@@H](CC(=O)O)C(=O)N[C@@H](CCCCN)C(=O)N[C@H](C(=O)N[C@@H](CCCCNC(=O)CCCCCCCCCCCCCCC(=O)O)C(=O)N[C@@H](CCC(N)=O)C(=O)N[C@@H](CCC(N)=O)C(=O)N[C@@H](CC(=O)O)C(=O)N[C@@H](Cc1ccccc1)C(=O)N[C@H](C(=O)N[C@@H](CC(N)=O)C(=O)N[C@@H](Cc1c[nH]c2ccccc12)C(=O)N[C@@H](CC(C)C)C(=O)N[C@@H](CC(C)C)C(=O)N[C@@H](C)C(=O)N[C@@H](CCC(N)=O)C(=O)N[C@@H](CCCCN)C(=O)N1CCC[C@H]1C(=O)N[C@@H](CO)C(=O)N[C@@H](CO)C(=O)NCC(=O)N[C@@H](C)C(=O)N1CCC[C@H]1C(=O)N1CCC[C@H]1C(=O)N1CCC[C@H]1C(=O)N[C@@H](CO)C(=O)O)C(C)C)[C@@H](C)CC
B2: AT641 (peptide)
peptide: GETFISDYSIAMDKIK(C16 diacid)QQDFVNWLLAQKPSSGAPPPS-OH
modifications: N-terminus assumed
SMILES: CC[C@H](C)[C@H](NC(=O)[C@H](CO)NC(=O)[C@H](Cc1ccc(O)cc1)NC(=O)[C@H](CC(=O)O)NC(=O)[C@H](CO)NC(=O)[C@@H](NC(=O)[C@H](Cc1ccccc1)NC(=O)[C@@H](NC(=O)[C@H](CCC(=O)O)NC(=O)CN)[C@@H](C)O)[C@@H](C)CC)C(=O)N[C@@H](C)C(=O)N[C@@H](CCSC)C(=O)N[C@@H](CC(=O)O)C(=O)N[C@@H](CCCCN)C(=O)N[C@H](C(=O)N[C@@H](CCCCNC(=O)CCCCCCCCCCCCCCC(=O)O)C(=O)N[C@@H](CCC(N)=O)C(=O)N[C@@H](CCC(N)=O)C(=O)N[C@@H](CC(=O)O)C(=O)N[C@@H](Cc1ccccc1)C(=O)N[C@H](C(=O)N[C@@H](CC(N)=O)C(=O)N[C@@H](Cc1c[nH]c2ccccc12)C(=O)N[C@@H](CC(C)C)C(=O)N[C@@H](CC(C)C)C(=O)N[C@@H](C)C(=O)N[C@@H](CCC(N)=O)C(=O)N[C@@H](CCCCN)C(=O)N1CCC[C@H]1C(=O)N[C@@H](CO)C(=O)N[C@@H](CO)C(=O)NCC(=O)N[C@@H](C)C(=O)N1CCC[C@H]1C(=O)N1CCC[C@H]1C(=O)N1CCC[C@H]1C(=O)N[C@@H](CO)C(=O)O)C(C)C)[C@@H](C)CC
B3: AT640 (peptide)
peptide: [Aib]ETFISDYSIAMDKIK(C16 diacid)QQDFVNWLLAQKPSSGAPPPS-OH
modifications: N-terminus assumed
SMILES: CC[C@H](C)[C@H](NC(=O)[C@H](CO)NC(=O)[C@H](Cc1ccc(O)cc1)NC(=O)[C@H](CC(=O)O)NC(=O)[C@H](CO)NC(=O)[C@@H](NC(=O)[C@H](Cc1ccccc1)NC(=O)[C@@H](NC(=O)[C@H](CCC(=O)O)NC(=O)C(C)(C)N)[C@@H](C)O)[C@@H](C)CC)C(=O)N[C@@H](C)C(=O)N[C@@H](CCSC)C(=O)N[C@@H](CC(=O)O)C(=O)N[C@@H](CCCCN)C(=O)N[C@H](C(=O)N[C@@H](CCCCNC(=O)CCCCCCCCCCCCCCC(=O)O)C(=O)N[C@@H](CCC(N)=O)C(=O)N[C@@H](CCC(N)=O)C(=O)N[C@@H](CC(=O)O)C(=O)N[C@@H](Cc1ccccc1)C(=O)N[C@H](C(=O)N[C@@H](CC(N)=O)C(=O)N[C@@H](Cc1c[nH]c2ccccc12)C(=O)N[C@@H](CC(C)C)C(=O)N[C@@H](CC(C)C)C(=O)N[C@@H](C)C(=O)N[C@@H](CCC(N)=O)C(=O)N[C@@H](CCCCN)C(=O)N1CCC[C@H]1C(=O)N[C@@H](CO)C(=O)N[C@@H](CO)C(=O)NCC(=O)N[C@@H](C)C(=O)N1CCC[C@H]1C(=O)N1CCC[C@H]1C(=O)N1CCC[C@H]1C(=O)N[C@@H](CO)C(=O)O)C(C)C)[C@@H](C)CC
B4: AT643 (peptide)
peptide: DTTFISDYSIAMDKIK(C16 diacid)QQDFVNWLLAQKPSSGAPPPS-OH
modifications: N-terminus assumed
SMILES: CC[C@H](C)[C@H](NC(=O)[C@H](CO)NC(=O)[C@H](Cc1ccc(O)cc1)NC(=O)[C@H](CC(=O)O)NC(=O)[C@H](CO)NC(=O)[C@@H](NC(=O)[C@H](Cc1ccccc1)NC(=O)[C@@H](NC(=O)[C@@H](NC(=O)[C@@H](N)CC(=O)O)[C@@H](C)O)[C@@H](C)O)[C@@H](C)CC)C(=O)N[C@@H](C)C(=O)N[C@@H](CCSC)C(=O)N[C@@H](CC(=O)O)C(=O)N[C@@H](CCCCN)C(=O)N[C@H](C(=O)N[C@@H](CCCCNC(=O)CCCCCCCCCCCCCCC(=O)O)C(=O)N[C@@H](CCC(N)=O)C(=O)N[C@@H](CCC(N)=O)C(=O)N[C@@H](CC(=O)O)C(=O)N[C@@H](Cc1ccccc1)C(=O)N[C@H](C(=O)N[C@@H](CC(N)=O)C(=O)N[C@@H](Cc1c[nH]c2ccccc12)C(=O)N[C@@H](CC(C)C)C(=O)N[C@@H](CC(C)C)C(=O)N[C@@H](C)C(=O)N[C@@H](CCC(N)=O)C(=O)N[C@@H](CCCCN)C(=O)N1CCC[C@H]1C(=O)N[C@@H](CO)C(=O)N[C@@H](CO)C(=O)NCC(=O)N[C@@H](C)C(=O)N1CCC[C@H]1C(=O)N1CCC[C@H]1C(=O)N1CCC[C@H]1C(=O)N[C@@H](CO)C(=O)O)C(C)C)[C@@H](C)CC
B5: AT644 (peptide)
peptide: GETFISDYAIALDKIK(C16 diacid)QQDFVEWLLAQGPSSGAPPPS-OH
modifications: N-terminus assumed
SMILES: CC[C@H](C)[C@H](NC(=O)[C@H](C)NC(=O)[C@H](Cc1ccc(O)cc1)NC(=O)[C@H](CC(=O)O)NC(=O)[C@H](CO)NC(=O)[C@@H](NC(=O)[C@H](Cc1ccccc1)NC(=O)[C@@H](NC(=O)[C@H](CCC(=O)O)NC(=O)CN)[C@@H](C)O)[C@@H](C)CC)C(=O)N[C@@H](C)C(=O)N[C@@H](CC(C)C)C(=O)N[C@@H](CC(=O)O)C(=O)N[C@@H](CCCCN)C(=O)N[C@H](C(=O)N[C@@H](CCCCNC(=O)CCCCCCCCCCCCCCC(=O)O)C(=O)N[C@@H](CCC(N)=O)C(=O)N[C@@H](CCC(N)=O)C(=O)N[C@@H](CC(=O)O)C(=O)N[C@@H](Cc1ccccc1)C(=O)N[C@H](C(=O)N[C@@H](CCC(=O)O)C(=O)N[C@@H](Cc1c[nH]c2ccccc12)C(=O)N[C@@H](CC(C)C)C(=O)N[C@@H](CC(C)C)C(=O)N[C@@H](C)C(=O)N[C@@H](CCC(N)=O)C(=O)NCC(=O)N1CCC[C@H]1C(=O)N[C@@H](CO)C(=O)N[C@@H](CO)C(=O)NCC(=O)N[C@@H](C)C(=O)N1CCC[C@H]1C(=O)N1CCC[C@H]1C(=O)N1CCC[C@H]1C(=O)N[C@@H](CO)C(=O)O)C(C)C)[C@@H](C)CC
B6: AT642 (peptide)
peptide: PETFISDYSIAMDKIK(C16 diacid)QQDFVNWLLAQKPSSGAPPPS-OH
modifications: N-terminus assumed
SMILES: CC[C@H](C)[C@H](NC(=O)[C@H](CO)NC(=O)[C@H](Cc1ccc(O)cc1)NC(=O)[C@H](CC(=O)O)NC(=O)[C@H](CO)NC(=O)[C@@H](NC(=O)[C@H](Cc1ccccc1)NC(=O)[C@@H](NC(=O)[C@H](CCC(=O)O)NC(=O)[C@@H]1CCCN1)[C@@H](C)O)[C@@H](C)CC)C(=O)N[C@@H](C)C(=O)N[C@@H](CCSC)C(=O)N[C@@H](CC(=O)O)C(=O)N[C@@H](CCCCN)C(=O)N[C@H](C(=O)N[C@@H](CCCCNC(=O)CCCCCCCCCCCCCCC(=O)O)C(=O)N[C@@H](CCC(N)=O)C(=O)N[C@@H](CCC(N)=O)C(=O)N[C@@H](CC(=O)O)C(=O)N[C@@H](Cc1ccccc1)C(=O)N[C@H](C(=O)N[C@@H](CC(N)=O)C(=O)N[C@@H](Cc1c[nH]c2ccccc12)C(=O)N[C@@H](CC(C)C)C(=O)N[C@@H](CC(C)C)C(=O)N[C@@H](C)C(=O)N[C@@H](CCC(N)=O)C(=O)N[C@@H](CCCCN)C(=O)N1CCC[C@H]1C(=O)N[C@@H](CO)C(=O)N[C@@H](CO)C(=O)NCC(=O)N[C@@H](C)C(=O)N1CCC[C@H]1C(=O)N1CCC[C@H]1C(=O)N1CCC[C@H]1C(=O)N[C@@H](CO)C(=O)O)C(C)C)[C@@H](C)CC

Target: T1, human GIP receptor
Experiment: cell-based or functional assay

Binder	cAMP agonism % Emax [%]	cAMP antagonism [nM]	cAMP antagonism % inhib [%]	cAMP antagonism pIC50
B1	0	66.8	100	7.2
B2	0	7.94	91	8.1
B3	0	7.08	90	8.2
B4	0	11.2	90	8
B5	0	17.1	93	7.8
B6	0	35.5	92	7.5
